{
  "source": "the Human Domainome abundance scans (Beltran et al. 2025)",
  "note": "± gives the uncertainty stated by the source.",
  "data": [
    {"assay": "abundance fitness (aPCA) (normalised: wild type 0, dead -1); higher = more abundant; growth selection in yeast, the domain comes from the species named", "conditions": "Homo sapiens", "values": [
      {"substance": "DnaJ homolog subfamily B member 1 E38F, P25685", "abundance fitness": "-0.127 ± 0.12"},
      {"substance": "DnaJ homolog subfamily B member 1 E38G, P25685", "abundance fitness": "-0.068 ± 0.098"},
      {"substance": "DnaJ homolog subfamily B member 1 E38H, P25685", "abundance fitness": "0.017 ± 0.2"},
      {"substance": "DnaJ homolog subfamily B member 1 E38I, P25685", "abundance fitness": "-0.034 ± 0.15"},
      {"substance": "DnaJ homolog subfamily B member 1 E38L, P25685", "abundance fitness": "-0.099 ± 0.061"},
      {"substance": "DnaJ homolog subfamily B member 1 E38M, P25685", "abundance fitness": "-0.041 ± 0.1"},
      {"substance": "DnaJ homolog subfamily B member 1 E38N, P25685", "abundance fitness": "-0.179 ± 0.2"},
      {"substance": "DnaJ homolog subfamily B member 1 E38P, P25685", "abundance fitness": "-0.342 ± 0.14"},
      {"substance": "DnaJ homolog subfamily B member 1 E38R, P25685", "abundance fitness": "-0.172 ± 0.091"},
      {"substance": "DnaJ homolog subfamily B member 1 E38S, P25685", "abundance fitness": "-0.106 ± 0.083"},
      {"substance": "DnaJ homolog subfamily B member 1 E38T, P25685", "abundance fitness": "-0.041 ± 0.089"},
      {"substance": "DnaJ homolog subfamily B member 1 E38V, P25685", "abundance fitness": "-0.006 ± 0.096"},
      {"substance": "DnaJ homolog subfamily B member 1 E38W, P25685", "abundance fitness": "-0.019 ± 0.081"},
      {"substance": "DnaJ homolog subfamily B member 1 E42A, P25685", "abundance fitness": "0.002 ± 0.077"},
      {"substance": "DnaJ homolog subfamily B member 1 E42C, P25685", "abundance fitness": "-0.048 ± 0.097"},
      {"substance": "DnaJ homolog subfamily B member 1 E42D, P25685", "abundance fitness": "0.116 ± 0.11"},
      {"substance": "DnaJ homolog subfamily B member 1 E42F, P25685", "abundance fitness": "-0.171 ± 0.1"},
      {"substance": "DnaJ homolog subfamily B member 1 E42G, P25685", "abundance fitness": "-0.153 ± 0.097"},
      {"substance": "DnaJ homolog subfamily B member 1 E42H, P25685", "abundance fitness": "-0.003 ± 0.098"},
      {"substance": "DnaJ homolog subfamily B member 1 E42I, P25685", "abundance fitness": "-0.105 ± 0.12"},
      {"substance": "DnaJ homolog subfamily B member 1 E42K, P25685", "abundance fitness": "0.301 ± 0.14"},
      {"substance": "DnaJ homolog subfamily B member 1 E42L, P25685", "abundance fitness": "0.086 ± 0.055"},
      {"substance": "DnaJ homolog subfamily B member 1 E42M, P25685", "abundance fitness": "0.038 ± 0.079"},
      {"substance": "DnaJ homolog subfamily B member 1 E42N, P25685", "abundance fitness": "0.027 ± 0.13"},
      {"substance": "DnaJ homolog subfamily B member 1 E42P, P25685", "abundance fitness": "0.028 ± 0.087"},
      {"substance": "DnaJ homolog subfamily B member 1 E42Q, P25685", "abundance fitness": "-0.157 ± 0.12"},
      {"substance": "DnaJ homolog subfamily B member 1 E42R, P25685", "abundance fitness": "0.024 ± 0.058"},
      {"substance": "DnaJ homolog subfamily B member 1 E42S, P25685", "abundance fitness": "-0.016 ± 0.065"},
      {"substance": "DnaJ homolog subfamily B member 1 E42T, P25685", "abundance fitness": "-0.052 ± 0.093"},
      {"substance": "DnaJ homolog subfamily B member 1 E42W, P25685", "abundance fitness": "-0.122 ± 0.11"},
      {"substance": "DnaJ homolog subfamily B member 1 E42Y, P25685", "abundance fitness": "-0.188 ± 0.1"},
      {"substance": "DnaJ homolog subfamily B member 1 E43A, P25685", "abundance fitness": "0.025 ± 0.13"},
      {"substance": "DnaJ homolog subfamily B member 1 E43C, P25685", "abundance fitness": "-0.07 ± 0.2"},
      {"substance": "DnaJ homolog subfamily B member 1 E43D, P25685", "abundance fitness": "-0.153 ± 0.14"},
      {"substance": "DnaJ homolog subfamily B member 1 E43F, P25685", "abundance fitness": "-0.093 ± 0.19"},
      {"substance": "DnaJ homolog subfamily B member 1 E43G, P25685", "abundance fitness": "0.009 ± 0.074"},
      {"substance": "DnaJ homolog subfamily B member 1 E43I, P25685", "abundance fitness": "0.109 ± 0.12"},
      {"substance": "DnaJ homolog subfamily B member 1 E43K, P25685", "abundance fitness": "0.156 ± 0.1"},
      {"substance": "DnaJ homolog subfamily B member 1 E43L, P25685", "abundance fitness": "0.105 ± 0.066"},
      {"substance": "DnaJ homolog subfamily B member 1 E43N, P25685", "abundance fitness": "-0.003 ± 0.21"},
      {"substance": "DnaJ homolog subfamily B member 1 E43P, P25685", "abundance fitness": "-0.177 ± 0.13"},
      {"substance": "DnaJ homolog subfamily B member 1 E43Q, P25685", "abundance fitness": "0.086 ± 0.1"},
      {"substance": "DnaJ homolog subfamily B member 1 E43R, P25685", "abundance fitness": "0.11 ± 0.051"},
      {"substance": "DnaJ homolog subfamily B member 1 E43S, P25685", "abundance fitness": "-0.014 ± 0.092"},
      {"substance": "DnaJ homolog subfamily B member 1 E43T, P25685", "abundance fitness": "-0.109 ± 0.12"},
      {"substance": "DnaJ homolog subfamily B member 1 E43V, P25685", "abundance fitness": "0.112 ± 0.062"},
      {"substance": "DnaJ homolog subfamily B member 1 E43W, P25685", "abundance fitness": "-0.043 ± 0.069"},
      {"substance": "DnaJ homolog subfamily B member 1 E43Y, P25685", "abundance fitness": "0.196 ± 0.32"},
      {"substance": "DnaJ homolog subfamily B member 1 E47A, P25685", "abundance fitness": "0.021 ± 0.088"},
      {"substance": "DnaJ homolog subfamily B member 1 E47C, P25685", "abundance fitness": "-0.218 ± 0.095"},
      {"substance": "DnaJ homolog subfamily B member 1 E47D, P25685", "abundance fitness": "-0.073 ± 0.13"},
      {"substance": "DnaJ homolog subfamily B member 1 E47F, P25685", "abundance fitness": "-0.277 ± 0.098"}
    ]}
  ]
}
